In patent US20180016620A1 (KITE PHARMA, published 2018):
No end group written: not given here.

Tests used:
[1] = target: T1, SEQ ID NO: 485 GSTSGSGKPGSGEGST (also: biotin on N-terminus or on added C-terminal Lys, which not given here); test: epitope mapping ELISA: antibody captured on Protein G plate, biotinylated peptide, streptavidin-HRP, chemiluminescence
T1 peptide: GSTSGSGKPGSGEGST
Experimental: (§1) The antibodies (i.e., antigen binding molecules) were epitope mapped via ELISA using the full length peptide, […] (SEQ ID NO:1), and variants truncated on either the N- or C-terminus and containing either a biotin moiety on the N-terminus, or a lysine residue with a biotin moiety on the C-terminus. The antibodies were captured in 96-well plate format using plates pre-coated with Protein G (Pierce). The plates were washed 6× in PBST buffer followed by incubation with target peptides. An additional 6× wash was performed with PBST and the antibodies were further incubated with streptavidin-HRP. Upon a final 6× wash in PBST, signal was detected and quantified via enhanced chemiluminescense kit (ECL, from GE Healthcare) and a Varioskan Flash plate reader (Thermo Fisher).

[2] = target: T2, SEQ ID NO: 490 GKPGSGEGSTKG (also: biotin on N-terminus or on added C-terminal Lys, which not given here); test: as above
T2 peptide: GKPGSGEGSTKG
Experimental: as §1

[3] = target: T3, SEQ ID NO: 486 GSTSGSGKPGSGEG (also: biotin on N-terminus or on added C-terminal Lys, which not given here); test: as above
T3 peptide: GSTSGSGKPGSGEG
Experimental: as §1

[4] = target: T4, SEQ ID NO: 497 SGKPGSGEGSTKG (also: biotin on N-terminus or on added C-terminal Lys, which not given here); test: as above
T4 peptide: SGKPGSGEGSTKG
Experimental: as §1

[5] = target: T5, SEQ ID NO: 496 GSTSGSGKPGSGE (also: biotin on N-terminus or on added C-terminal Lys, which not given here); test: as above
T5 peptide: GSTSGSGKPGSGE
Experimental: as §1

[6] = target: T6, SEQ ID NO: 498 KPGSGEGSTKG (also: biotin on N-terminus or on added C-terminal Lys, which not given here); test: as above
T6 peptide: KPGSGEGSTKG
Experimental: as §1

[7] = target: T7, SEQ ID NO: 489 GSGKPGSGEGSTKG (also: biotin on N-terminus or on added C-terminal Lys, which not given here); test: as above
T7 peptide: GSGKPGSGEGSTKG
Experimental: as §1

FL_peptide_OVA = target: T8, FL_peptide_OVA (also: conjugated to ovalbumin, site and chemistry not given here); test: ELISA as for the peptides of the figure; y axis 0 to 7000000 without unit
T8 construct: not shown: the ovalbumin carrier protein
T8 peptide: GSTSGSGKPGSGEGSTKG
Experimental: as §1

[8] = target: T9, GSTSGSGKPGSGEGST SEQ ID NO: 485 (also: biotin on N-terminus or on added C-terminal Lys, which not given here); test: ELISA: antibody captured on Protein G plate, biotinylated peptide, streptavidin-HRP, chemiluminescence; y axis 0 to 7000000 without unit
T9 construct: also called 18 mer lacking its 2 C-terminal residues
T9 peptide: GSTSGSGKPGSGEGST
Experimental: as §1

[9] = target: T10, GKPGSGEGSTKG SEQ ID NO: 490 (also: biotin on N-terminus or on added C-terminal Lys, which not given here); test: as above
T10 construct: also called 18 mer lacking its 6 N-terminal residues
T10 peptide: GKPGSGEGSTKG
Experimental: as §1

[10] = target: T11, GSGKPGSGEGSTKG SEQ ID NO: 489 (also: biotin on N-terminus or on added C-terminal Lys, which not given here); test: as above
T11 construct: also called 18 mer lacking its 4 N-terminal residues
T11 peptide: GSGKPGSGEGSTKG
Experimental: as §1

[11] = target: T12, GSTSGSGKPGSGEG SEQ ID NO: 486 (also: biotin on N-terminus or on added C-terminal Lys, which not given here); test: as above
T12 construct: also called 18 mer lacking its 4 C-terminal residues
T12 peptide: GSTSGSGKPGSGEG
Experimental: as §1

[12] = target: T13, full length 18 mer linker peptide GSTSGSGKPGSGEGSTKG (also: biotin on N-terminus or on added C-terminal Lys, which not given here); test: as above
T13 construct: Synthetic linker peptide; also called full-length linker peptide; Whitlow linker
T13 peptide: GSTSGSGKPGSGEGSTKG
Experimental: as §1

Measured: binding result

B1: Clone 16 anti-linker antibody (antibody, V domains shown)
VH: QSLEESGGRLVTPGTPLTLTCTVSGSDISSYHMGWVRQAPGKGLEYIGIIVSSGSAYYATWAKGRFTISRTSTTVDLKITSPTTEDSATYFCARNQYSGYGFSFWGPGTLVTVSS
VL: AVVLTQTPSPVSTAVGGTVTINCQSSHSVYYGDWLAWYQQKPGQPPKLLIYRASNLASGVPSRFKGSGSGTQFTLTISGVQCDDAATYYCLGGYDDDGETAFGGGTEVVVKD
notes: Rabbit monoclonal from a hybridoma; also called Clone 16-6; 16-6
binds: all assays above

B2: Clone 8 anti-linker antibody (antibody, V domains shown)
VH: QSVEESGGRLVTPGTPLTLTCTASGFTISNLAIIWVRQAPGKGLEYIGDIDGRGDIYCATWAKGRFTISKTSTTLDLRFTSPTTEDTATYFCAVDGDGSGWGDFNFWGPGTLVTVSS
VL: AYDMTQTPASVEVAVGGTVSIKCQASQSISTALAWYQQKPGQPPKLLIYRASTLASGVSSRFKGSGSGTQFTLTISGVECDDAATYYCQQGWSTVNVDNVFGGGTEVVVRD
notes: Rabbit monoclonal from a hybridoma; also called Clone 8-4; 8-4
not listed: [6] | [9]
binds: all other assays above
